{"source": "patent US20070087400A1", "about": "“Covalent tethering of functional groups to proteins and substrates therefor” (priority 2004, published 2007)", "key": {"[1]": {"assay": "Precipitation of DhaA proteins with (NH4)2SO4", "type": "physicochemical", "conditions": "2 hours, 4° C.", "method": "Aliquots of the supernatant obtained from E. coli expressing DhaA (WT or one of the mutants) were treated with increasing concentrations of (NH4)2SO4. The proteins were exposed to each (NH4)2SO4 concentration for 2 hours (4° C.), pelleted by centrifugation, dialyzed overnight against buffer A, and resolved on SDS-PAGE."}, "[2]": {"assay": "DhaA capture using immobilized biotin chloroalkane substrates (ELISA-type)", "type": "binding", "description": "DhaA capture using immobilized chloroalkane substrates. […] Reactions between immobilized substrate and mutant DhaAs were performed using purified GST-DhaA-Flag fusions. Various concentrations of protein (100 μL; diluted in PBSTB) were incubated with immobilized substrate for various times at 25° C., and the reactions were stopped by emptying the plates and washing 4× with PBST. To detect bound DhaA, 100 μL anti-GST-HRP (Amersham) was added to each well at a 1:10,000 dilution (in PBSTB) and the plates incubated for 1 hour at 25° C."}, "[3]": {"assay": "In vivo labeling of DhaA mutants expressed in CHO-K1 cells (cell-to-gel analysis)", "type": "cell-based", "conditions": "substrate concentration 5 μM", "method": "Cell-to-gel analysis. […] Proteins (2-10 μl/lane) were resolved on SDS-PAGE (4-20% gradient gels)."}, "[4]": {"assay": "Thermostability analysis (residual activity by FP assay)", "type": "physicochemical", "conditions": "60 minute incubations", "method": "Thermostability analysis. The thermostability profiles of the DhaA mutants were determined by measuring the residual activity of the purified proteins following 15, 30 or 60 minute incubations at 4, 22, 30, 37, 42, 50 or 60° C. The FP assay was performed at room temperature (about 25° C.). […] For each clone, the labeling rate (slope of the linear range) was calculated for each condition. The rate observed following a 15 minute incubation at 4° C. was arbitrarily assigned as 100% activity. The residual activity (%) was calculated for each condition. To determine stability, for each incubation time, the % of residual activity was plotted against the incubation temperatures. To calculate half-life, for each incubation temperature, the % of residual activity was plotted against the incubation time. The time where 50% activity was lost was extrapolated from the graph."}, "[5]": {"assay": "Covalent alkyl-enzyme formation in whole cells", "conditions": "15 μM substrate, 4° C., approximately 18 hours"}, "[6]": {"assay": "In vitro covalent alkyl-enzyme formation in crude lysates", "conditions": "25 μM substrate, 2 hours at room temperature"}, "[7]": {"assay": "Protein immobilization assay (substrate capture using immobilized DhaA)", "conditions": "biotin-PEG4-14-Cl substrate"}, "[8]": {"assay": "Hydrolysis of CCF2 (FRET-based substrate) by BlaZ", "type": "biochemical, Staphylococcus aureus PC1", "from_the_text": "In CCF2, the cephalosporin core links a 7-hydroxycoumarin to a fluorescein. In the intact molecule, excitation of the coumarin (Eex-409 nm) results in FRET to the fluorescein, which emits green light (Eem-520 nm). Cleavage of CCF2 by β-lactamase results in spatial separation of the two dyes, disrupting FRET such that excitation of coumarin now gives rise to blue fluorescence (Eex-447 nm). CCF2 was purchased from Aurora Biosciences Corporation (San Diego, Calif.). Reduction of the FRET signal and an increase in blue fluorescence were measured on Fluorescence Multi-well Plate Reader CytoFluorI (PerSeptive Biosystems, Framingham, Mass., USA)."}, "[9]": {"assay": "Hydrolysis of FAP by BlaZ (loss of absorbance at 344 nm)", "type": "biochemical, Staphylococcus aureus PC1", "conditions": "25° C., pH 6.8, up to 60 minutes", "method": "The chromogenic substrate 6-β-[(Furylacryloyl)amido]penicillanic acid triethylamine salt (FAP) was purchased from Calbiochem (La Jolla, Calif.). […] All assays were performed at 25° C. in 0.1 M potassium phosphate buffer at pH 6.8."}}, "data": [{"molecule": "DhaA.H272Q: DhaA mutant with H272Q substitution (protein, UniProt P0A3G2 1-293, looked up, variant H272Q) Haloalkane dehalogenase: MSEIGTGFPFDPHYVEVLGERMHYVDVGPRDGTPVLFLHGNPTSSYLWRNIIPHVAPSHRCIAPDLIGMGKSDKPDLDYFFDDHVRYLDAFIEALGLEEVVLVIHDWGSALGFHWAKRNPERVKGIACMEFIRPIPTWDEWPEFARETFQAFRTADVGRELIIDQNAFIEGALPKCVVRPLTEVEMDHYREPFLKPVDREPLWRFPNELPIAGEPANIVALVEAYMNWLHQSPVPKLLFWGTPGVLIPPAEAARLAESLPNCKTVDIGPGLQYLQEDNPDLIGSEIARWLPAL", "values": [{"measurement": "(NH4)2SO4 concentration at which the protein was precipitated", "setting": "[1]", "value": 10, "unit": "%"}]}, {"molecule": "DhaA.H272G: DhaA mutant with H272G substitution (protein, UniProt P0A3G2 1-293, looked up, variant H272G) Haloalkane dehalogenase: MSEIGTGFPFDPHYVEVLGERMHYVDVGPRDGTPVLFLHGNPTSSYLWRNIIPHVAPSHRCIAPDLIGMGKSDKPDLDYFFDDHVRYLDAFIEALGLEEVVLVIHDWGSALGFHWAKRNPERVKGIACMEFIRPIPTWDEWPEFARETFQAFRTADVGRELIIDQNAFIEGALPKCVVRPLTEVEMDHYREPFLKPVDREPLWRFPNELPIAGEPANIVALVEAYMNWLHQSPVPKLLFWGTPGVLIPPAEAARLAESLPNCKTVDIGPGLGYLQEDNPDLIGSEIARWLPAL", "values": [{"measurement": "(NH4)2SO4 concentration at which the protein was precipitated", "setting": "[1]", "value": 10, "unit": "%"}]}, {"molecule": "DhaA.H272F H11: first generation DhaA.H272F mutant with K175M and C176G (protein, UniProt P0A3G2 1-293, looked up, variant K175M C176G H272F) Haloalkane dehalogenase: MSEIGTGFPFDPHYVEVLGERMHYVDVGPRDGTPVLFLHGNPTSSYLWRNIIPHVAPSHRCIAPDLIGMGKSDKPDLDYFFDDHVRYLDAFIEALGLEEVVLVIHDWGSALGFHWAKRNPERVKGIACMEFIRPIPTWDEWPEFARETFQAFRTADVGRELIIDQNAFIEGALPMGVVRPLTEVEMDHYREPFLKPVDREPLWRFPNELPIAGEPANIVALVEAYMNWLHQSPVPKLLFWGTPGVLIPPAEAARLAESLPNCKTVDIGPGLFYLQEDNPDLIGSEIARWLPAL", "values": [{"measurement": "reaction with all biotin substrates tested", "setting": "[2]; biotin-14-Cl, biotin-X-14-Cl, biotin-PEG4-14-Cl", "value": "reacted poorly"}, {"measurement": "in vivo labeling performance compared to parent DhaA.H272F", "setting": "[3]", "value": "superior performance characteristics"}, {"measurement": "retained significant labeling activity following incubation as high as", "setting": "[4]", "value": "≤ 50", "unit": "°C"}]}, {"molecule": "DhaA.H272A: DhaA mutant with H272A substitution (protein, UniProt P0A3G2 1-293, looked up, variant H272A) Haloalkane dehalogenase: MSEIGTGFPFDPHYVEVLGERMHYVDVGPRDGTPVLFLHGNPTSSYLWRNIIPHVAPSHRCIAPDLIGMGKSDKPDLDYFFDDHVRYLDAFIEALGLEEVVLVIHDWGSALGFHWAKRNPERVKGIACMEFIRPIPTWDEWPEFARETFQAFRTADVGRELIIDQNAFIEGALPKCVVRPLTEVEMDHYREPFLKPVDREPLWRFPNELPIAGEPANIVALVEAYMNWLHQSPVPKLLFWGTPGVLIPPAEAARLAESLPNCKTVDIGPGLAYLQEDNPDLIGSEIARWLPAL", "values": [{"measurement": "(NH4)2SO4 concentration at which the protein was precipitated", "setting": "[1]", "value": 10, "unit": "%"}]}, {"molecule": "DhaA.H272F: DhaA mutant, catalytic His272 replaced with Phe (protein, UniProt P0A3G2 1-293, looked up, variant H272F) Haloalkane dehalogenase: MSEIGTGFPFDPHYVEVLGERMHYVDVGPRDGTPVLFLHGNPTSSYLWRNIIPHVAPSHRCIAPDLIGMGKSDKPDLDYFFDDHVRYLDAFIEALGLEEVVLVIHDWGSALGFHWAKRNPERVKGIACMEFIRPIPTWDEWPEFARETFQAFRTADVGRELIIDQNAFIEGALPKCVVRPLTEVEMDHYREPFLKPVDREPLWRFPNELPIAGEPANIVALVEAYMNWLHQSPVPKLLFWGTPGVLIPPAEAARLAESLPNCKTVDIGPGLFYLQEDNPDLIGSEIARWLPAL", "values": [{"measurement": "formation of covalent alkyl-enzyme intermediate in whole cells", "setting": "[5]", "value": "capable of generating a covalent alkyl-enzyme intermediate"}, {"measurement": "formation of alkyl-enzyme covalent intermediate in crude lysates", "setting": "[6]", "value": "very efficient at producing this intermediate"}]}, {"molecule": "DhaA.H272F YL: DhaA.H272F based mutant with Y273L (protein, UniProt P0A3G2 1-293, looked up, variant H272F Y273L) Haloalkane dehalogenase: MSEIGTGFPFDPHYVEVLGERMHYVDVGPRDGTPVLFLHGNPTSSYLWRNIIPHVAPSHRCIAPDLIGMGKSDKPDLDYFFDDHVRYLDAFIEALGLEEVVLVIHDWGSALGFHWAKRNPERVKGIACMEFIRPIPTWDEWPEFARETFQAFRTADVGRELIIDQNAFIEGALPKCVVRPLTEVEMDHYREPFLKPVDREPLWRFPNELPIAGEPANIVALVEAYMNWLHQSPVPKLLFWGTPGVLIPPAEAARLAESLPNCKTVDIGPGLFLLQEDNPDLIGSEIARWLPAL", "values": [{"measurement": "reaction with immobilized biotin-PEG4-14-Cl", "setting": "[2]", "value": "react most efficiently"}, {"measurement": "activity compared to parental clones", "setting": "[7]", "value": "significantly improved"}]}, {"molecule": "DhaA.WT: wild-type Rhodococcus rhodochrous dehalogenase (DhaA) (protein, UniProt P0A3G2 1-293, looked up) Haloalkane dehalogenase: MSEIGTGFPFDPHYVEVLGERMHYVDVGPRDGTPVLFLHGNPTSSYLWRNIIPHVAPSHRCIAPDLIGMGKSDKPDLDYFFDDHVRYLDAFIEALGLEEVVLVIHDWGSALGFHWAKRNPERVKGIACMEFIRPIPTWDEWPEFARETFQAFRTADVGRELIIDQNAFIEGALPKCVVRPLTEVEMDHYREPFLKPVDREPLWRFPNELPIAGEPANIVALVEAYMNWLHQSPVPKLLFWGTPGVLIPPAEAARLAESLPNCKTVDIGPGLHYLQEDNPDLIGSEIARWLPAL", "values": [{"measurement": "formation of alkyl-enzyme covalent intermediate in crude lysates", "setting": "[6]", "value": "No such product could be detected"}]}, {"molecule": "DhaA.H272F YC: DhaA.H272F based mutant with Y273C (protein, UniProt P0A3G2 1-293, looked up, variant H272F Y273C) Haloalkane dehalogenase: MSEIGTGFPFDPHYVEVLGERMHYVDVGPRDGTPVLFLHGNPTSSYLWRNIIPHVAPSHRCIAPDLIGMGKSDKPDLDYFFDDHVRYLDAFIEALGLEEVVLVIHDWGSALGFHWAKRNPERVKGIACMEFIRPIPTWDEWPEFARETFQAFRTADVGRELIIDQNAFIEGALPKCVVRPLTEVEMDHYREPFLKPVDREPLWRFPNELPIAGEPANIVALVEAYMNWLHQSPVPKLLFWGTPGVLIPPAEAARLAESLPNCKTVDIGPGLFCLQEDNPDLIGSEIARWLPAL", "values": [{"measurement": "activity compared to parental clones", "setting": "[7]", "value": "significantly improved"}]}, {"molecule": "DhaA.H272F YM: DhaA.H272F based mutant with Y273M (protein, UniProt P0A3G2 1-293, looked up, variant H272F Y273M) Haloalkane dehalogenase: MSEIGTGFPFDPHYVEVLGERMHYVDVGPRDGTPVLFLHGNPTSSYLWRNIIPHVAPSHRCIAPDLIGMGKSDKPDLDYFFDDHVRYLDAFIEALGLEEVVLVIHDWGSALGFHWAKRNPERVKGIACMEFIRPIPTWDEWPEFARETFQAFRTADVGRELIIDQNAFIEGALPKCVVRPLTEVEMDHYREPFLKPVDREPLWRFPNELPIAGEPANIVALVEAYMNWLHQSPVPKLLFWGTPGVLIPPAEAARLAESLPNCKTVDIGPGLFMLQEDNPDLIGSEIARWLPAL", "values": [{"measurement": "reaction with immobilized biotin-PEG4-14-Cl", "setting": "[2]", "value": "react most efficiently"}, {"measurement": "activity compared to parental clones", "setting": "[7]", "value": "significantly improved"}]}, {"molecule": "BlaZ.N170Q (protein, UniProt P00807 25-281, looked up, variant N170Q) Beta-lactamase: KELNDLEKKYNAHIGVYALDTKSGKEVKFNSDKRFAYASTSKAINSAILLEQVPYNKLNKKVHINKDDIVAYSPILEKYVGKDITLKALIEASMTYSDNTANNKIIKEIGGIKKVKQRLKELGDKVTNPVRYEIELNYYSPKSKKDTSTPAAFGKTLNKLIANGKLSKEQKKFLLDLMLNNKSGDTLIKDGVPKDYKVADKSGQAITYASRNDVAFVYPKGQSEPIVLVIFTNKDNKSDKPNDKLISETAKSVMKEF", "values": [{"measurement": "hydrolysis of CCF2", "setting": "[8]", "value": "reduced the ability"}, {"measurement": "hydrolysis of FAP", "setting": "[9]", "value": "could not be detected"}]}]}
